Paper PMC7465474, “Interplay of Structural Disorder and Short Binding Elements in the Cellular Chaperone Function of Plant Dehydrin ERD14” (Cells, 2020)

Molecular target: T1, citrate synthase (CS) (E. coli (endogenous in AVB101), UniProt P0ABH7 1-427)
T1 sequence (looked up): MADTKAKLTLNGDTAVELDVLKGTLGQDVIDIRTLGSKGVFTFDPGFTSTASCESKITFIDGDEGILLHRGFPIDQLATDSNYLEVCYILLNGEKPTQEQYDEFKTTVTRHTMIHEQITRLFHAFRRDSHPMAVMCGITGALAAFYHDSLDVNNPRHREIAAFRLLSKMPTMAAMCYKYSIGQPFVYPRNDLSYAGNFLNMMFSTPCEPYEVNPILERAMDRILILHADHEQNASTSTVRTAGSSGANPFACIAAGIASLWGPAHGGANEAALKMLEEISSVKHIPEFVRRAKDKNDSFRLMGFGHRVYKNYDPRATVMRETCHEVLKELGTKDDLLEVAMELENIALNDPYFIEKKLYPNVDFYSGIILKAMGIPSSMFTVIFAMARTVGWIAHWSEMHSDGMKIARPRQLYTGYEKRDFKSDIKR
Test: cell-based or functional assay

- enthalpy change of unfolding (ΔHm) of 2 μM CS, two-state fit of the CD thermal denaturation, with 2, 5 and 13 μM purified WT ERD14 (396 falling to 316 kJ/mol; CS alone 475 kJ/mol): 94.6 kcal/mol
B1: Early Response to Dehydration 14 (ERD14) of A. thaliana, wild type, biotinylated in the cell (natural protein, UniProt P42763 1-185, looked up)
chain: MAEEIKNVPEQEVPKVATEESSAEVTDRGLFDFLGKKKDETKPEETPIASEFEQKVHISEPEPEVKHESLLEKLHRSDSSSSSSSEEEGSDGEKRKKKKEKKKPTTEVEVKEEEKKGFMEKLKEKLPGHKKPEDGSAVAAAPVVVPPPVEEAHPVEKKGILEKIKEKLPGYHPKTTVEEEKKDKE
modifications: biotin (in-cell biotinylation)
- melting temperature (Tm) of 2 μM CS, thermal denaturation followed by CD at 220 nm, with 2, 5 and 13 μM purified WT ERD14 (50.5 to 55.3 °C; CS alone 49.5 °C): 55.3 °C
